Test results reported in the DeepSol protein solubility set.

Test: soluble on expression in E. coli; label from the status in PepcDB or PDB records

Sequence	soluble on expression in E. coli
MYSIEVRTHSALHVVKGAVVKVLGSEAKWTYSTYVKGNKGVLIVKFDRKPSDEEIREIERLANEKVKENAPIKIYELPREEAEKMFGEDMYDLFPVPEDVRILKVVVIEDWNVNACNKEHTKTTGEIGPIKIRKVRFRKSKGLLEIHFELLELENPSLEHHHHHH	soluble
MYSKIIERELETLKTIFQEASRANTHYEFISVVGKAVSEFLGSEGYRIEWDGRGSAKGNEVVLEIRINTYAKVNLYFPLKKGRKLSKVEEEFLKFVKEVSERIAEKITSYTIYKTLLDSYPFVAYLVEAEPPYPQKILYVTPSLEKWLGWKPEEISKDW	not soluble
MYSVLIPVDRDEARASNQASYVSQLPDATDTVEATVLYVVPPDEFADAAEVAFDDIDAAVQAANQLEAAGVSVTRMVDDGGVAQQIVRTATELDSDEIVVGGRKRSGVSKVLLGSTAQDVLLSAERPVTITGESVVL	not soluble
MYTAENAPGVAVLLSGDADVPGPLTGLPTHQDNLDTVIGRYSRLIVVGADADLGAVLTRLLRTDRLDVEVGYVPRRRSPATRAYRLPAGRRAARRARCGVARRVPLIRDETGSVIVGRAQWLPAEEQALIHGEAVVDDTVLFDGDVAGVCIEPTLTLPGLRAAVDGAGKWRRWIGGRAAQLGTTGAAVLRDGVAAPRPVRRSTFYRNVEGWLLVR	soluble
MYTITDIAPTDAEFIALIAALDAWQETLYPAESNHLLDLSQLPPQTVIALAIRSPQGEAVGCGAIVLSEEGFGEMKRVYIDPQHRGQQLGEKLLAALEAKARQRDCHTLRLETGIHQHAAIALYTRNGYQTRCAFAPYQPDPLSVFMEKP	not soluble
MYTKNFSNSRMEVKGNNGCSAPIIRKPFKHIVLTVPSSDLDNFNTVFYVQPQYINQALHLANAFQGAIDPLNLNFNFEKALQIANGIPNSAIVKTLNQSVIQQTVEISVMVEQLKKIIQEVLGLVINSTSFWNSVEATIKGTFTNLDTQIDEAWIFWHSLSAHNTSYYYNILFSIQNEDTGAVMAVLPLAFEVSVDVEKQKVLFFTIKDSARYEVKMKALTLVQALHSSNAPIVDIFNVNNYNLYHSNHKIIQNLNLSN	soluble
MYTPLYRPRYPEGLDPGIQHGVLRLLNPDPRVGEAEHRLENLLEPPYGGPPPPYYQSRPLRPYCYVSAEAGLNNLDPAVPRFVEVLSQPLVYLSPQETLV	soluble
MYTTQMDAAKKGIITDEMRIVAEKEGVHVEKLRELVASGKVVIPANKNHKKLEPQGIGEGLRTKINVNIGISKDCCNFEMELEKAKKAIELKAEAIMDLSSYGKTREFRRKLVEMSPVMIGTVPVYDAVGFYEKDLKDISAEEFFEVVEKHAEDGVDFMTIHAGINRETAKRFKENGRLTNIVSRGGSLIFAWMELTGNENPFYEQYDRLLQIFEKYDVTISLGDALRPGSINDSTDASQIQELIVLGELTKRAWEKNVQVMIEGPGHMAINEIAPNMVLEKKLCHGAPFYVLGPIVTDIAPGYDHITSAIGGAIAAANGADFLCYVTPAEHLRLPDIDDMKEGIIAARIAAHAADIAKGIKGAREWDYQMSEARRNLDWNRMFELAIDREKAERYRKSSMPEDEDTCTMCGRMCAVKNTNKALKGEKINIL	not soluble
MYVTVTEAAYKKIMDTIPSEAKYIKLFYDNEGCGCVMSGIIDLVAVAEKDERDVDIESSTMNFIADRTKLVFMDDKLTVDWHEGGGTFQLKSPSQFYNPNMKLHVRV	not soluble
MYYADSSPALVGLIALNARLHGIRADVVDFMAASTPAGEQAISHVYLPFSVAGVPSTFLVSM	not soluble
NAIQWVEHTDRVINNTNRSMKLSIDMETGMRGFLLTGDQHFLDPYEIAKPLLVAELNGLQDLVKDNPTQQDRFRRLFTMQQEWNVFAQDMIDLRRNNGDFQTPVLAGRGKRITDQIRTEYEQAVEMEQQLRLTRNAE	not soluble
NAMYTITDIAPTDAEFIALIAALDAWQETLYPAESNHLLDLSQLPPQTVIALAIRSPQGEAVGCGAIVLSEEGFGEMKRVYIDPQHRGQQLGEKLLAALEAKARQRDCHTLRLETGIHQHAAIALYTRNGYQTRCAFAPYQPDPLSVFMEKPLFADLRSAAL	soluble
NEVDDMDTSDTQWGWFYLAECGKWHMFQPDTNSQCSVSSEDIEKSFKTNPCGSISFTTSKFSYKIDFAEMKQMNLTTGKQRLIKRAPFS	soluble
NGLLYKRWVKQRAEDVEKWSGGRLGYVHIQSMGDGSFRTVYSDILGKYNNCDGIVIDTRFNGGGRLHEDIEILFSGQKYFTQVVRGREACDMPSRRWNKPSIMLQCEANYSNAHGTPWVYKHQNIGKLVGMPVPGTMTSVSWETLQDPSLVFGIPIIGYRLPDGSYLENTQLEPDIKVANSPETIVKGEDTQLKMAVDELLKEIDSRKK	not soluble
NHINPVNPAEPALYLPTQYDVREFAEKTKNETVYVFTSVGEYWPLAWYLRDHRAYFITTGVEGRSFISGNYIVVNATNDMRLDKTNLEFVETMVVRCWTFWTTPELQRIPAFLAFREPLTDVSCMNFSVYRAI	not soluble
NIYDSANELSRGLRGLPEYKAVKAAKDAIAADAEASKIFTDYLAFQEEIQKLAQTGQMPDASFQAKMEGFGKQIQGNSLLSEFFTKQQQLAIYLSDIEKIVFEPVSELLK	not soluble
NKSDAAAKQIKKLEEDFDGRIGVFAIDTGSGNTFGYRSDERFPLCSSFKGFLAAAVLERVQQKKLDINQKVKYESRDLEYHSPITTKYKGSGMTLGDMASAALQYSDNGATNIIMERFLGGPEGMTKFMRSIGDNEFRLDRWELELNTAIPGDKRDTSTPKAVANSLNKLALGNVLNAKVKAIYQNWLKGNTTGDARIRASVPADWVVGDKTGSCGAYGTANDYAVIWPKNRAPLIVSIYTTRKSKDDKHSDKTIAEASRIAIQAID	soluble
NLAHDTVFEVRNVTSRDRKKVRDISFSVCRGEILGFAGLVGSGRTELMNCLFGVDKRAGGEIRLNGKDISPRSPLDAVKKGMAYITESRRDNGFFPNFSIAQNIAISRSLKDGGYKGAMGLFHEVDEQRTAEAQRELLALKCHSVNQNITELSGGNQQKVLISKWLCCHPEVIIFDEPTRGIDVGAKAEIYKVMRQLADDGKVILMVSSELPEIITVCDRIAVFCEGRLTQILTNRDDMSEEEIMAWALPHE	not soluble
NNINVITDQMGNLDIKSNDNINQNTQNSNVASDLNLLTQNKYLENILMMNTYGVNYDHLFLPQNVAYLAAQQLSNNIMNNRNQINAAYTSQQYPNQSIPIKNIYDQSHLKYQQNSSSWRPPLNNGNIYDGVKSNPMGLHILQNGIDLYTNVDSNSVTSAINFDKYDSIPVSVTGPDYSATNVIENFDELKLDPTIRNNILLASYQRPTPIQKNAIPAILEHRDIMACAQTGSGKTAAFLIPIINHLVCQDLNQQRYSKTAYPKCLILAPTRELAIQILSESQKFSLNTPLRSCVVYGGADTHSQIREVQMGCHLLVATPGRLVDFIEKNKISLEFCKYIVLDEADRMLDMGFEPQIRKIIEESNMPSGINRQTLMFSATFPKEIQKLAADFLYNYIFMTVGRVGSTSDSIKQEIIYMTDVEKLNYLKNIFNTTAPNTLILIFVETKKGADSLARFLLSKGYPVSSIHGDRSQVEREAALSMFRNGQCPILVATAVAARGLDIPNVKHVINYDLPSDIEEYVHRIGRTGRLGNHGRATSFYVDKNNNIAIDLVDLLKEANQIVPQWLSALADELKRNSTMGSNNKRHNQRRYKNGNFGGRDYRQGPSNVNMNSGVNPDYFISGSVAPRHAKLNNGNYFPRSNELHDQHQKQNNNNNQVISNTFHTGISASHLIPGYATFNRQQAPLHFIPHQTNNTQFLSSSGQMALYNRMQNSGHMAPNQRFPNEPIHHQQEQLPITYNFSKNLPYLGQSYSGHNNNNNNNNNTSKINDSDSCYFGNKTPR	soluble
NQVEKSLISSYEQSLNQRIDNLSYYIEQEYKSDNDSTVIKDDVSRILNDFTKSDEVREISFVDKSYEVVGSSKPYGEEVAGKQTTDLIFKRIFSTKQSYLRKYYDPKSKIRVLISAKPVMTENQEVVGAIYVVASMEDVFNQMKTINT	not soluble
NSLFNQEVQIPLTESYCGPCPKNWICYKNNCYQFFDESKNWYESQASCMSQNASLLKVYSKEDQDLLKLVKSYHWMGLVHIPTNGSWQWEDGSILSPNLLTIIEMQKGDCALYASSFKGYIENCSTPNTYICMQRTV	soluble
NSLSTDMSVNRDNRTITSSIMRVSNSSELIQFKNKTAPYFSEKRNVEVNINGVAKDIYGRQIVCRHLASYWEMNFMETNGKVNYQLLSTPDAIAKNVCLEKTEDFSKSPAYIYFVENKKWGTVITNFFYNMKKNGDFVRTLSACTLNHQMALGLKIKRVQESEKWVVQFFDPNRTVTHKRTVFTCDSHFELSQLSAKDFFDDFYWKIYGLEQPGQVIFEDRHNSPLTNTVKLLPDELINSRVIYHAITKNLTEVLFILMEKYKNGEISQSKLVNLLATRSSDGTPAFYIALQNGYSDIIQVYGKILNMCNLSQETILTLLAAVGANNVPGLCMSFMNGHVDTIKAYGEIVFKTPLTSDKRLYLLAAKDSHDLPGLFFALQNGHADSIRMFGSLLNKKMLSSEQIKELLKVKHGLFMALQNGHTKAIMAYGDILKILPPHQEYIDELLWIKNPNGTSGLFMAFYNGHTETIRAFCNILKNYSFTTRRLVEMLSATNKDGIPGVFVSVVNRDKETILEYCRIIKENNLEPDTIAEQFSKKMKKTFIEIINRFNHFL	soluble
NVHREWAANEKTAMESALGMSYAGKRALVCMKHVGMNVAADCFMNAAITGANGGMVIVAADDPSMHSSQNEQDSRVYGQFAMIPVMEPSNQQEAYDMTRLAFDLSERLGTPVMMRITTRLAHSRAGVVQTEPIGENELHLPEDKRQYVLLPGIAKKRYRILLDKQTDFVRESENSPYTEYVDAADKSKGIVACGIAYNYLMEAFKAQVPYPVLKVTQYPIPHKQMERLLNECGDIVVMEEGYPVVEQLLKGFPGLERIKGRLDGTLPRDGELNPDHVAKAFNIPVVEGEPIPDLVAARPPALCKGCSHRDVYDALNEVLTEYPNGRVFSDIGCYTLGALPPYEAINSCVDMGASITMAKGAADAGLFPAVSVIGDSTFTHSGITGLLDAINENSNITVIISDNESISMTGGQH	not soluble
NYMGNPWTEYMAKYDIEEVHGSGIRVDLGEDAEVAGTQYRLPSGKCPVFGKGIIIENSNTTFLTPVATGNQYLKDGGFAFPPTEPLMSPMTLDEMRHFYKDNKYVKNLDELTLCSRHAGNMIPDNDKNSNYKYPAVYDDKDKKCHILYIAAQENNGPRYCNKDESKRNSMFCFRPAKDISFQNYTYLSKNVVDNWEKVCPRKNLQNAKFGLWVDGNCEDIPHVNEFPAIDLFECNKLVFELSASDQPKQYEQHLTDYEKIKEGFKNKNASMIKSAFLPTGAFKADRYKSHGKGYNWGNYNTETQKCEIFNVKPTCLINNSSYIATTALSHPIEVE	soluble
PADLSGTWTLLSSDNFEGYMLALGIDFATRKIAKLLKPQKVIEQNGDSFTIHTNSSLRNYFVKFKVGEEFDEDNRGLDNRKCKSLVIWDNDRLTCIQKGEKKNRGWTHWIEGDKLHLEMFCEGQVCKQTFQRA	soluble
PALVLEGDMTAPTLVIGWGSTFGSLKSAVQQCLEQGLPVAYLHLRHLNPLPDDLGSLLKKYDKVLVAELNSGQLCQLIRAVYLVDAQSISQCNGQPFSVNPLVSAIKAEANYEQQL	not soluble
PDLIYYRNADGVFSGCNRAMEELTGKKEHQLVGLSPWDVYSKEIAQPIVDTDQKVFSDNQAITYEQWLEYPDGRKHYFELRKVPFYSKD	not soluble
PGAPRRLIDAALAAGAQGLVIEAMGSGNVGTDIGVALGEALDAGIPVVISTRVPRGEVFGAYGGAGGGKTLASKGAVNSTYFRSGQARVLLAIAIASGVHPATLL	not soluble
